Laboratory results: patent US20160264960A1 (Chugai, published 2016)

T1: biotinylated human IL-6R (shIL6R-Avitag) (human, UniProt P08887 20-357, biotinylated at the C-terminal AviTag sequence by biotin ligase (BirA))
T1 construct: It was captured on a StreptaWell plate in the phage ELISA; its preparation is described in (3-3); also called biotinylated hIL-6R
T1 sequence: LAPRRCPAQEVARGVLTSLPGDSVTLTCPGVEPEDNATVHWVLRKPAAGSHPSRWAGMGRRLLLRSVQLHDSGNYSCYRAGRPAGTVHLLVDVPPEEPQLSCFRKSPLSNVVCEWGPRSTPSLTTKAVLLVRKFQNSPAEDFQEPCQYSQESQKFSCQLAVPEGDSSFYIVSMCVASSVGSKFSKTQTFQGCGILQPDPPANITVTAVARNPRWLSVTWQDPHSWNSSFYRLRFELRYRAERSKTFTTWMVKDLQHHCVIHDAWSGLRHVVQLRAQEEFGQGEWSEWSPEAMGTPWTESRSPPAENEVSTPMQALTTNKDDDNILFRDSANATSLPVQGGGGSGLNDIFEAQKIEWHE

T2: human plexin A1 protein sema domain (from glutamic acid at position 28 to serine at position 514) tagged at … (human, UniProt Q9UIW2 28-514)
T2 construct: also called human plexin A1 sema domain
T2 sequence: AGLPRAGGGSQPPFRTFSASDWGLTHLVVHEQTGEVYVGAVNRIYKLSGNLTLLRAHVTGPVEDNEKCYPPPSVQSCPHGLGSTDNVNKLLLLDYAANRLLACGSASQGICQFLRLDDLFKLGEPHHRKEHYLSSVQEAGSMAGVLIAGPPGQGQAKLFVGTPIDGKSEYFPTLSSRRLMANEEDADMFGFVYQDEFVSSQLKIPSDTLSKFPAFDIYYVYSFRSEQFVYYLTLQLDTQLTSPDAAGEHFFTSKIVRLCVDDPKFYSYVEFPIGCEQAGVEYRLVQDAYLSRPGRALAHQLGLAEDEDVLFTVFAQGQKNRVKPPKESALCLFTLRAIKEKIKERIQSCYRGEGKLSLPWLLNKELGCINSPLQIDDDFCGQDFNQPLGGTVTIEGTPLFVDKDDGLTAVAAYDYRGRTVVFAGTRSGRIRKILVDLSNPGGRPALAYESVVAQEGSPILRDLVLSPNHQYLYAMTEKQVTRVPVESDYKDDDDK


Columns and labels:
[1] = molecular target: T1, biotinylated human IL-6R (shIL6R-Avitag); experiment: phage ELISA, plate coated with biotinylated human IL-6R, detection with HRP anti-M13 antibody, absorbance at 450 nm
Experimental: The phage ELISA method was carried out to confirm Fab display on the produced phage and to confirm the ability to bind to the antigen. StreptaWell 96-well microtiter plate (F. Hoffmann-La Roche, Ltd.) was coated by the addition of 100 μL of PBS containing Goat anti-Human Kappa Biotin antibody (EY Laboratories, Inc.) or biotinylated human IL-6R. Each well of the plate was washed with 0.1×TBST (0.1×TBS containing 0.1% Tween 20) to remove the antigen. Then, the plate was blocked for 1 hour or longer by the addition of 250 μL of 0.02% skim milk-0.1×TBS (0.1×TBS containing 0.02% skim milk) to the well. […] After washing with 0.1×TBST, an HRP-conjugated anti-M13 antibody (Amersham Pharmacia Biotech) diluted with 0.1×TBST was added to each well, and the plate was incubated for 1 hour. After washing with 0.1×TBST, TMB single solution (Zymed Laboratories Inc.) was added to each well. The color reaction of the solution was further terminated by the addition of sulfuric acid. Then, the absorbance was measured at 450 nm.

[2] = molecular target: T2, human plexin A1 protein sema domain …; experiment: SPR, Biacore T200; the parent antibody itself (control)
Experimental: (§1) Each antibody obtained in the paragraph (10-1) was evaluated for its binding activity against the antigen by surface plasmon resonance (SPR) analysis.
(§2) In the SPR analysis, the antibody was analyzed using Biacore T200 (GE Healthcare Japan Corp.). The anti-human plexin A1 antibody was immobilized onto the surface of Sensor Chip CM4 using Recombinant Protein A/G (Thermo Fisher Scientific Inc.) and Amine Coupling Kit (GE Healthcare Japan Corp.). The antigen used was a human plexin A1 protein sema domain (from glutamic acid at position 28 to serine at position 514) tagged at the C terminus of the protein with FLAG tag. The antigen was prepared as follows: an expression vector carrying a cDNA corresponding to the human plexin A1 sema domain was transferred to FreeStyle 293 cells. After culture, the obtained culture solution was passed through an anti-FLAG-M2 antibody-immobilized affinity column. A fraction eluted with the FALG peptide was purified by gel filtration. The obtained antigen was serially diluted with 20 mM ACES, 150 mM NaCl, 0.05% polysorbate 20, and 1.2 mM CaCl₂ (pH 7.4) and added to the sensor chip at a flow rate of 30 μL/min. In this assay system, the dissociation constant (KD) between the human plexin A1 protein and the anti-human plexin A1 antibody was calculated using data analysis software (BIA T200 Evaluation software ver. 2).

[3] = molecular target: T2, human plexin A1 protein sema domain …; experiment: SPR, Biacore T200; antibody held by Protein A/G on CM4 chip, sema domain as analyte
Experimental: as §1, §2

[4] = molecular target: T2, human plexin A1 protein sema domain …; experiment: SPR, Biacore T200; KD against parent antibody hPANLB2-3_264
Experimental: as §1, §2

[5] = molecular target: T2, human plexin A1 protein sema domain …; experiment: SPR, Biacore T200; KD against parent antibody hPANLB2-3_359
Experimental: as §1, §2

Row | Binder | binding result [1] | Relative KD improvement [2] | Kd [3] | Relative KD improvement [4] | Relative KD improvement [5]
1 | PF1 Fab displayed on phage (PF1 H chain Fd-g3p fusion with PF1 L chain) (Fab, V domains shown, also called Fab-displaying phage; phage produced with M13KO7TC-PF1L; not shown: linker peptide and gene 3 protein (g3p) fused to the C terminus of the Fd) VH: QVQLQESGPGLVKPSETLSLTCAVSGYSISDDHAWSWVRQPPGEGLEWIGYISYSGITNYNPSLKGRVTISRDTSKNQFSLKLSSVTAADTAAYYCARVLARITAMDYWGEGTLVTVSS VL: DIQMTQSPSSLSASVGDSVTITCQASQDISSYLNWYQQKPGKAPELLIYYGSELHSGVPSRFSGSGSGTDFTFTISSLEAEDAATYYCGQGNRLPYTFGQGTKVEIER | binds | – | – | – | –
2 | phage produced by the H chain (PF1H)-expressing phagemid vector and the negative control helper phage M13KO7TC (other, Control phage without an L chain; not shown: linker peptide and gene 3 protein (g3p)) heavy: QVQLQESGPGLVKPSETLSLTCAVSGYSISDDHAWSWVRQPPGEGLEWIGYISYSGITNYNPSLKGRVTISRDTSKNQFSLKLSSVTAADTAAYYCARVLARITAMDYWGEGTLVTVSSASTKGPSVFPLAPSSKSTSGGTAALGCLVKDYFPEPVTVSWNSGALTSGVHTFPAVLQSSGLYSLSSVVTVPSSSLGTQTYICNVNHKPSNTKVDKK | no binding | – | – | – | –
3 | hPANLB2-3_264 (antibody, human IgG1, lambda, V domains shown, Parent anti-plexin A1 antibody, IgG) VH: QVQLQQSGPGLVKPSQTLSLTCAISGDSVSSNSAAWNWIRQSPSRGLEWLGRTYYRSKWYNDYAVSVKSRITINPDTSKNQFSLQLNSVTPEDTAVYYCARDRGYSYGFDYWGQGTLVTVSS VL: SYLLTQPPSVSVSPGQTASITCSGDKLGQKFVSWYQQRPGQSPVLVIYQDTKRPSGIPERFSGSNSGNTATLTISGTQAMDEADYYCQAWDSSTAGVFGGGTNLTVLG | – | 1 fold | 173 nM | – | –
4 | PLR2H264#002 (antibody, human IgG1, lambda, V domains shown, IgG from the 264H-NL library) VH: QVQLQQSGPGLVKPSQTLSLTCAISGDSVSSNSAAWNWIRQSPSRGLEWLGRTYYRSKWYNDYAVSVKSRITINPDTSKNQFSLQLNSVTPEDTAVYYCARDRGYSYGFDYWGQGTLVTVSS VL: SYELTQPPSVSVSPGQTASITCSGDKLGNKYVSWYQRRPGQSPVLVIYQDSKRPSGIPERFSGSNSGNTATLTISGTQSMDEADYYCQAWYSSSVGVFGGGTRLTVLG | – | – | 138 nM | 1.3 fold | –
5 | PLR4H264#061 (antibody, human IgG1, lambda, V domains shown, IgG from the 264H-NL library) VH: QVQLQQSGPGLVKPSQTLSLTCAISGDSVSSNSAAWNWIRQSPSRGLEWLGRTYYRSKWYNDYAVSVKSRITINPDTSKNQFSLQLNSVTPEDTAVYYCARDRGYSYGFDYWGQGTLVTVSS VL: SYELTQPPSVAVSPGQTASITCSGHKLGEKYASWYQQKPGQSPVLVIYQDTKRPSGIPERFSGSNSGNTATLTISGTQAMDEADYYCQAWDSSSVCVFGTGTKVTVLG | – | – | 41 nM | 4.2 fold | –
6 | PLR3H264#022 (antibody, human IgG1, lambda, V domains shown, IgG from the 264H-NL library) VH: QVQLQQSGPGLVKPSQTLSLTCAISGDSVSSNSAAWNWIRQSPSRGLEWLGRTYYRSKWYNDYAVSVKSRITINPDTSKNQFSLQLNSVTPEDTAVYYCARDRGYSYGFDYWGQGTLVTVSS VL: SYVLTQPRSVSVSPGQTTRITCSGQNLGEKYISWYRQKPGQSPEVLIYEDKRRPSGIPERISGANSGGTATLTISGTQAMDEADYFCQAWVSSTEGVFGGGTRLTVLR | – | – | 56.9 nM | 3 fold | –
7 | hPANLB2-3_342 (antibody, human IgG1, lambda, V domains shown, Parent anti-plexin A1 antibody, IgG) VH: EVQLVQSGAEVKKPGASVKVSCKASGYTFTSYGISWVRQAPGQGLEWMGWISAYNGNTNYAQKLQGRVTMTTDTSTSTAYMELRSLRSDDTAVYYCARHAGYYYGMDVWGKGTMVTVSS VL: SYELTQPPSVSVSPGQTASITCSGDKLGEKYASWYQQKPGQSPVLVIYQDSKRPSGIPERFSGSNSGNMATLTISGTQAVDEADYYCQTWDSNTAFVFGTGTKVTVLG | – | 1 fold | 34.5 nM | – | –
8 | hPANLB2-3_359 (antibody, human IgG1, lambda, V domains shown, Parent anti-plexin A1 antibody, IgG) VH: QVQLVQSGAEVKKPGASVKVSCKASGYTFTSYYMHWVRQAPGQGLEWMGIINPSGGSTSYAQKFQGRVTMTRDTSTSTVYMELSSLRSEDTAVYYCARAPGHYYYGMDVWGQGTTVTVSS VL: SYELTQPPSVSVSPGQTASITCSGDKVGEKYASWYQQRPGQSPVLVIYQDTKRPSGIPERFSGSNSGNTATLTISGTQAIDDADYYCQAWDNSAYVIFGGGTKLTVLG | – | 1 fold | 13.5 nM | – | –
9 | PLR2H359#087 (antibody, human IgG1, lambda, V domains shown, IgG from the 359H-NL library) VH: QVQLVQSGAEVKKPGASVKVSCKASGYTFTSYYMHWVRQAPGQGLEWMGIINPSGGSTSYAQKFQGRVTMTRDTSTSTVYMELSSLRSEDTAVYYCARAPGHYYYGMDVWGQGTTVTVSS VL: SSELTQPPSMSVSPGQTASISCSGDRLGEKYASWYQQKPGQSPVLVIYQDNKRPSGIPERFSGSNSGNTATLTISGTQAIDEADYYCQAWDSNSAYVFGTGTKVTVLG | – | – | 4.62 nM | – | 2.9 fold
10 | PLR2H359#062 (antibody, human IgG1, lambda, V domains shown, IgG from the 359H-NL library) VH: QVQLVQSGAEVKKPGASVKVSCKASGYTFTSYYMHWVRQAPGQGLEWMGIINPSGGSTSYAQKFQGRVTMTRDTSTSTVYMELSSLRSEDTAVYYCARAPGHYYYGMDVWGQGTTVTVSS VL: SYELTQPPSLSVSPGQTASITCSGDKLGEKYACWYQQKPGQSPALVIYQDTKRPSGIPERFSGSNSGNTATLTISGTQAMDEADYSCQAWDTNTGEVVFGGGTKLTVLG | – | – | 3.93 nM | – | 3.4 fold
